Data: patent US20120053125

What was measured:
human I-1 (S67D/T75D) = tested on: T1, human I-1 (S67D/T75D)
T1 sequence: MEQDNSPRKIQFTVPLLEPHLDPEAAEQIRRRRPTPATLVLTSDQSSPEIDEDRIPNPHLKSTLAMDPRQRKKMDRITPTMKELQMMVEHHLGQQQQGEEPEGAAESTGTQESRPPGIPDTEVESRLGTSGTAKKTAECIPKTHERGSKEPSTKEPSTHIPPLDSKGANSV

[1] = tested on: human I-1 (S67A), unphosphorylated
[2] = tested on: human I-1 (T75A), unphosphorylated
[3] = tested on: human phosphatase inhibitor-1 (I-1) wild type, dephosphorylated

Row | Substance | 32P incorporation upon PKA incubation, decrease against wild-type (human I-1 (S67D/T75D)) | 32P incorporation upon PKC-α incubation (human I-1 (S67A/T75A)) | 32P incorporated per protein at steady state (20-45 min), percent of wild type [1] | stoichiometry of phosphorylation at 45 min [1] | 32P incorporated per protein at 45 min, percent of wild type [2] | stoichiometry of phosphorylation at 45 min [2] | stoichiometry of phosphorylation at 45 min [3]
1 | Protein Kinase A (PKA, cAMP-dependent protein kinase), Upstate Biotechnology | the double mutant incorporated 29% less radioactivity than the wild-type |  |  |  |  |  | 
2 | Protein Kinase C alpha (PKC-α), Upstate Biotechnology |  | mutation of both Ser-67 and Thr-75 to Ala abolishes ^32P-incorporation into I-1 | I-1 (S67A) incorporated 40±8.6% of the radioactivity levels present in wild types (100%) | the incorporation of Pi into I-1(S67A) and I-1(T75A) were reduced to 0.35 and 0.30 mol Pi/mol protein, respectively | I-1 (T75A) incorporated 33.8±12.7% of the levels in wild type (100%) | the incorporation of Pi into I-1(S67A) and I-1(T75A) were reduced to 0.35 and 0.30 mol Pi/mol protein, respectively | I-1 wild-type was phosphorylated by PKC-α for 45 min to a stoichiometry of 0.88 mol Pi/mol protein
